# In paper PMC10244618:
# Where “and” joins values, the source holds several entries; their conditions need not be identical. Identical values can stand only once.
# B1: NF2 (merlin) isoform 7, human, full length (507 aa, lacks exons 2-3 = isoform-1 residues 39-121; exon-16 C-terminus), P35240-4 (parent)
# chain: MAGAIASRMSFSSLKRKQPKTFTVRIVTMDAEMEFNCEVKKQILDEKIYCPPEASVLLASYAVQAKYGDYDPSVHKRGFLAQEELLPKRVINLYQMTPEMWEERITAWYAEHRGRARDEAEMEYLKIAQDLEMYGVNYFAIRNKKGTELLLGVDALGLHIYDPENRLTPKISFPWNEIRNISYSDKEFTIKPLDKKIDVFKFNSSKLRVNKLILQLCIGNHDLFMRRRKADSLEVQQMKAQAREEKARKQMERQRLAREKQMREEAERTRDELERRLLQMKEEATMANEALMRSEETADLLAEKAQITEEEAKLLAQKAAEAEQEMQRIKATAIRTEEEKRLMEQKVLEAEVLALKMAEESERRAKEADQLKQDLQEAREAERRAKQKLLEIATKPTYPPMNPIPAPLPPDIPSFNLIGDSLSFDFKDTDMKRLSMEIEKEKVEYMEKSKHLQEQLNELKTEIEALKLKERETALDILHNENSDRGGSSKHNTIKKPQAQGRRPICI
# Variants of: B1
# Experiment: reverse yeast two-hybrid deep mutational scan (rY2H-seq): NF2 isoform 7 mutant library as bait mated with wild-type prey strains; selection on medium lacking adenine for non-interacting pairs; NextSeq paired-end sequencing; enrichment vs …
# Settings: with EMILIN1 (elastin microfibril interfacer 1), Q9Y6C2; yeast diploids after mating (RBait_S3 x RPrey_S3), 30 °C, selection for reporter genes on NB agar; human tyrosine kinase ABL2 co-expressed as the active kinase …; HIGHER = WEAKER BINDING (the opposite of display enrichments): higher = stronger loss of interaction: reverse Y2H selects yeast in which bait and prey do NOT interact (growth without adenine), so a …; hits-only table; scale: rY2H score; numbering: uniprot, sequence starts at 1
row,Variant,enrichment
1,I505F,1.61
2,I213F,3.35
3,N402F,4.91

# Same assay, conditions: with KDM1A (lysine-specific histone demethylase 1A; the table's label AOF2 is a gene synonym of KDM1A), O60341; yeast diploids after mating (RBait_S3 x RPrey_S3), 30 °C, selection for reporter genes on NB agar; human tyrosine kinase ABL2 co-expressed as the active kinase …; HIGHER = WEAKER BINDING (the opposite of display enrichments): higher = stronger loss of interaction: reverse Y2H selects yeast in which bait and prey do NOT interact (growth without adenine), so a …; hits-only table; scale: rY2H score; numbering: uniprot, sequence starts at 1
row,Variant,enrichment
1,I505F,2.14
2,S60F,3.51
3,I213F,6.76

# Same assay, conditions: with NF2 C-terminal domain (wild type; homomeric NF2-NF2 interaction), P35240; yeast diploids after mating (RBait_S3 x RPrey_S3), 30 °C, selection for reporter genes on NB agar; human ABL2 co-expressed as the kinase-dead K35M mutant …; HIGHER = WEAKER BINDING (the opposite of display enrichments): higher = stronger loss of interaction: reverse Y2H selects yeast in which bait and prey do NOT interact (growth without adenine), so a …; hits-only table; partner unresolved; scale: rY2H score; numbering: uniprot, sequence starts at 1
row,Variant,enrichment
1,I505F,2.29
2,I213F,4.21

# Same assay, conditions: with EMILIN1 (elastin microfibril interfacer 1), Q9Y6C2; yeast diploids after mating (RBait_S3 x RPrey_S3), 30 °C, selection for reporter genes on NB agar; human ABL2 co-expressed as the kinase-dead K35M mutant …; HIGHER = WEAKER BINDING (the opposite of display enrichments): higher = stronger loss of interaction: reverse Y2H selects yeast in which bait and prey do NOT interact (growth without adenine), so a …; hits-only table; scale: rY2H score; numbering: uniprot, sequence starts at 1
row,Variant,enrichment
1,A406F,10.8
2,S172F,1.58
3,I213F,7.19 and 3.36

# Same assay, conditions: with PIK3R3 (phosphatidylinositol 3-kinase regulatory subunit gamma), Q92569; yeast diploids after mating (RBait_S3 x RPrey_S3), 30 °C, selection for reporter genes on NB agar; human tyrosine kinase ABL2 co-expressed as the active kinase …; HIGHER = WEAKER BINDING (the opposite of display enrichments): higher = stronger loss of interaction: reverse Y2H selects yeast in which bait and prey do NOT interact (growth without adenine), so a …; hits-only table; scale: rY2H score; numbering: uniprot, sequence starts at 1
row,Variant,enrichment
1,I213F,15.3
2,L57F,1.98
3,S204F,3.76 and 3.21

# Same assay, conditions: with KDM1A (lysine-specific histone demethylase 1A; the table's label AOF2 is a gene synonym of KDM1A), O60341; yeast diploids after mating (RBait_S3 x RPrey_S3), 30 °C, selection for reporter genes on NB agar; human ABL2 co-expressed as the kinase-dead K35M mutant …; HIGHER = WEAKER BINDING (the opposite of display enrichments): higher = stronger loss of interaction: reverse Y2H selects yeast in which bait and prey do NOT interact (growth without adenine), so a …; hits-only table; scale: rY2H score; numbering: uniprot, sequence starts at 1
row,Variant,enrichment
1,N402F,24.7
